Data on 53 proteins can be found in the supplement of paper PMC10567573.

A short description of this data set: protein stability index of a GFP-peptide fusion (GPS, HEK-293T) (PSI 1-6); higher = more stable.
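Note: lentivirally expressed fusions sorted by FACS into six bins by GFP to DsRed ratio, PSI derived from sequencing read proportions per bin multiplied by bin number.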

Regarding YTPDLPRADVDHAIEKAFQLWSNV, the protein stability index (parent: IOH59103_21, c terminus: a fixed tail appended) was 1.83. Regarding YCSIKCQQEHWHAEHKRTCRRKR [ZMYND11 WT], under “parent: IOH62570_82, c terminus: native”, the protein stability index came to 2.53.

For HMFTPKLDKMLDPQVWREAATQVF, the protein stability index (parent: IOH55656_48, c terminus: a fixed tail appended) was found to be 1.92. With DDLTVVDAASLRRQIIKLNRRLQL, the protein stability index (parent: IOH62657_32, c terminus: a fixed tail appended) came to 2.1. On to ITQSWQVSVRVQPRGRAHLLPNPY, for which the protein stability index (parent: IOH58746_10, c terminus: a fixed tail appended) is 1.87. With HDPLYGKLFSTYLRPPHTSRGTSQ [LPCAT4 WT], the protein stability index (parent: IOH62663_80, c terminus: a fixed tail appended) turned out to be 2.6.

Regarding CRNCINLQNEAQKRESFLKYKCLL, the protein stability index (parent: IOH62149_105, c terminus: a fixed tail appended) amounted to 2. As to FGEDGIFRHDRLRFRDFVDALEDS, where the note is “parent: IOH61084_108, c terminus: a fixed tail appended”, the protein stability index is 2.59. For VEKVLRRWVDEEWPKRERGDPSRH [EDARADD WT], the protein stability index (parent: IOH59721_31, c terminus: a fixed tail appended) came out at 2.77. Consider CCSSADICPKCWTLMTMAIRIIDR [PRIM1 WT], for which the protein stability index (parent: IOH60890_21, c terminus: a fixed tail appended) turned out to be 1.95. Consider MAEISRIQYEMEYTEGISQRMRVP, for which the protein stability index (parent: IOH62657_1, c terminus: a fixed tail appended) stood at 2.65. Take VAHVKHLSASQKALKEKEKASWSS [COX4I1 WT]: under “parent: IOH62819_9, c terminus: a fixed tail appended”, the protein stability index is 3.21. As to RQHHHQSSFPGSLPQETNLTLKVC, the protein stability index (parent: IOH57371_7, c terminus: a fixed tail appended) was 2.86.

As to YHTSQSGDEMTSLSEYVSRMKETQ, the protein stability index (parent: IOH61079_77, c terminus: a fixed tail appended) worked out at 3.7. Regarding EADKNDKAVKDLVVLLFETALLSS, the protein stability index (parent: IOH61079_108, c terminus: a fixed tail appended) was 1.84. FTQSGPIVSRATGRCLEVEMSKDA [GALNT9 WT]: the protein stability index (parent: IOH59749_32, c terminus: a fixed tail appended) amounted to 2.02.

For EQVFSLGDGVSGGFFGIRDSSFL [ZBED1 WT], the protein stability index (parent: IOH55626_115, c terminus: native) turned out to be 3.38.

Turning to YTEGISQRMRVPEKLKVAPPNADL, for the setting “parent: IOH62657_3, c terminus: a fixed tail appended”, the protein stability index was found to be 2.94. For the protein ETIQGFWLLTKIDHWNNEKERILL [TPRG1 WT], under “parent: IOH59452_16, c terminus: a fixed tail appended”, the protein stability index worked out at 2.09.

In the case of FHGTRQYKFDPKTKRILTLQKANS, the protein stability index (parent: IOH59103_74, c terminus: a fixed tail appended) was 1.72. Consider VKGCSMYVALFPCNECAKLIIQAG [DCTD WT], for which the protein stability index (parent: IOH54732_19, c terminus: a fixed tail appended) was 2.63.

In the case of TPMTIPEFFRESVNRFGTYPALAS, where the note is “parent: IOH62594_9, c terminus: a fixed tail appended”, the protein stability index came out at 2.12. As for QVANSAFVERVRKRGFEVVYMTEP, the protein stability index (parent: IOH61079_83, c terminus: a fixed tail appended) turned out to be 2.26. Take EADYEDDSKIAFLMQLQDIQYLTE: for the setting “parent: IOH62149_110, c terminus: a fixed tail appended”, the protein stability index is 3.05.

WIHCFEGVTAIIFCVALSDYDLVL [GNAI1 WT]: the protein stability index (parent: IOH55111_36, c terminus: a fixed tail appended) was 2.97. On to MFFKDRFYMRTNPFYPEVELNFIS, for which, under “parent: IOH59103_50, c terminus: a fixed tail appended”, the protein stability index came to 2.27. With ASVTIQARAEQEEEFISNTLFKKI, the protein stability index (parent: IOH61736_17, c terminus: a fixed tail appended) is 3.51. Turning to EGLLRFSSWPFSIQDVVQPLTLQV, under “parent: IOH56238_29, c terminus: a fixed tail appended”, the protein stability index came to 2.09. Regarding YQSFVQFLQYYYQSGCLYRLRALG [TMEM120A WT], the protein stability index (parent: IOH55078_39, c terminus: a fixed tail appended) came out at 2.71. In the case of YQSGGRIRRPVNVPIDIFSEEIRF, the protein stability index (parent: IOH61428_28, c terminus: a fixed tail appended) came to 2.

On to FAQADALKGTLVSTLKEVKPTVFI, for which the protein stability index (parent: IOH62594_50, c terminus: a fixed tail appended) was found to be 1.64. Take TLFKKIQALQKEKETLAVNYEKEE: the protein stability index (parent: IOH61736_20, c terminus: a fixed tail appended) worked out at 3.05. As to GERVVINISGLRFETQLKTLCQFP, under “parent: IOH61428_18, c terminus: a fixed tail appended”, the protein stability index came to 2.31. In the case of FMPAMQFSIPPWRYDAEVVAIAQK [KIAA1161 WT], under “parent: IOH61072_98, c terminus: a fixed tail appended”, the protein stability index was determined as 1.76.

LQQLRARLQGLEADCVRGPDGVCL: the protein stability index (parent: IOH61084_56, c terminus: a fixed tail appended) came out at 2.22. For EKQKQPRWREGTKDSHDPLPSWAE, under “parent: IOH61084_93, c terminus: a fixed tail appended”, the protein stability index came out at 2.16. For AGSRQALSFEVPPCNYDPEKWIQ [MGC16075 WT], the protein stability index (parent: IOH57016_8, c terminus: native) came out at 1.84.

In the case of FTPPTSLTRAGMSYYNSPGLHVQH, under “parent: IOH61736_64, c terminus: a fixed tail appended”, the protein stability index worked out at 1.82. For YAELGQCSVFPATDAPEQFISQVT, the protein stability index (parent: IOH57150_92, c terminus: a fixed tail appended) is 2.17. For the protein RGRHEQSPTSRPRKVSSLPPRSC, under “parent: IOH58746_22, c terminus: native”, the protein stability index was found to be 2.58. Take FVAENSSLHPESGQENDATSPHFS [CD69 WT]: the protein stability index (parent: IOH57037_2, c terminus: a fixed tail appended) amounted to 2.9. Regarding PRGRAHLLPNPYQQDFLGLPEELR, where the note is “parent: IOH58746_12, c terminus: a fixed tail appended”, the protein stability index worked out at 3.93. Turning to ISKKFGDMSYSIRHSISMPAMRNS [TPD52L1 WT], the protein stability index (parent: IOH59709_21, c terminus: a fixed tail appended) was determined as 2.22. For the protein LPVETLGPASRMDPESERALQAPH, the protein stability index (parent: IOH61084_4, c terminus: a fixed tail appended) is 4.39.

Take FTSPDYQQQCHEMAERLEDSVLKG [C1orf55 WT]: the protein stability index (parent: IOH61664_26, c terminus: a fixed tail appended) is 2.15. Turning to LNFQIEHHLFPTMPRHNYHKVAPL [FADS1 WT], the protein stability index (parent: IOH55275_64, c terminus: a fixed tail appended) amounted to 2.38.

As for KIREKEEWIKLDYHRRHNPKTNED, for the setting “parent: IOH62149_64, c terminus: a fixed tail appended”, the protein stability index came to 4.36. Take YHIYVALEEEIERNKESPVFAPVY [HMOX1 WT]: the protein stability index (parent: IOH54938_10, c terminus: a fixed tail appended) was 2.02. Regarding MELLRTITYQPAASTKMCEQALGK, the protein stability index (parent: IOH57150_1, c terminus: a fixed tail appended) was determined as 2.16.

Consider LPQETNLTLKVCKPQAPQKLDPTL, for which, where the note is “parent: IOH57371_9, c terminus: a fixed tail appended”, the protein stability index is 3.74.

For KAVEEELDAEDRPAWNSKLQYILA, the protein stability index (parent: IOH55656_9, c terminus: a fixed tail appended) stood at 2.81. Turning to FVRGDHRDNSPFDGPGGNLAHAFQ, the protein stability index (parent: IOH59103_28, c terminus: a fixed tail appended) was determined as 1.98.

FCASTRLPPTPLLLFPEEEATNGR: the protein stability index (parent: IOH56238_25, c terminus: a fixed tail appended) is 2.88.
